This note sets out measurements from publication PMC9113939, “Snapshots of actin and tubulin folding inside the TRiC chaperonin” (Nature Structural & Molecular Biology, 2022).

Common to all, as to details: both partners purified
The target of experiment [1] is T1, recombinant human CCT5 homo-oligomer (hexadecameric form, CCT5_(16)) (Homo sapiens (Human)., UniProt P48643, biotin (for BLI)).
T1 construct: it mentions that recombinant CCT5 was earlier made with a C-terminal His-tag; also called recombinant CCT5; overexpressed CCT5; source: E. coli, recombinant; copies: 16
T1 sequence (P48643 whole entry): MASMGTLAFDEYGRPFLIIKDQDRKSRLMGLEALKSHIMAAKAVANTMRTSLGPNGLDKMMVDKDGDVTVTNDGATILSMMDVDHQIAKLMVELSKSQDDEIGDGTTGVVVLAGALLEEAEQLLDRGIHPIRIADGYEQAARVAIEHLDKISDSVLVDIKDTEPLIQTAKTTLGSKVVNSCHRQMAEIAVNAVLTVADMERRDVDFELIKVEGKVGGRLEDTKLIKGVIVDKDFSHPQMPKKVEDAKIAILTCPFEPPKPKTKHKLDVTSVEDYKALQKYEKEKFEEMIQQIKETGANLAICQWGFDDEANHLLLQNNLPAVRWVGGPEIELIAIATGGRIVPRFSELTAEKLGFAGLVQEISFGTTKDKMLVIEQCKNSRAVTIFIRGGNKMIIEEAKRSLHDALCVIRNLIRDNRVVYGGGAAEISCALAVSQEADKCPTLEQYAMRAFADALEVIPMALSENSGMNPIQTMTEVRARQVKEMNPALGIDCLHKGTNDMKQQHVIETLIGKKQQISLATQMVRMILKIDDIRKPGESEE
Briefly: BLI; Octet RED384, 25 °C, 20 mM HEPES pH 7.5, 150 mM NaCl, 0.1% BSA; biotinylated CCT5 on streptavidin sensors; Nb18 40 μM to 39 nM; steady-state fit.

Experiment [2] has as its target T2, recombinant CCT4 (Homo sapiens, UniProt P50991).
T2 construct: CCT4 subunit of TRiC, expressed recombinantly; Construct not described
Described as above.

Experiment [3] addresses T3, endogenous human TCP-1 ring complex (TRiC), CCT5 tagged with 3×FLAG/Spytag (human, UniProt P17987;P78371;P49368;P50991;P48643;P40227;Q99832;P50990).
T3 construct: CCT1 subunit of human TRiC; CCT2 subunit of human TRiC; CCT3 subunit of human TRiC; CCT4 subunit of human TRiC; CCT5 subunit of human TRiC, tag knocked into the genomic locus; CCT6 subunit of human TRiC; predominantly the CCT6A isoform by MS/MS and side-chain modelling; CCT7 subunit of human TRiC; CCT8 subunit of human TRiC; Hexadecamer of two back-to-back rings of eight paralogous subunits; also …
Briefly: cryo-EM structure; purified TRiC (1.5 mg/ml) premixed with Nb18 at 1:1 molar ratio, 1 mM ATP, 5 mM MgCl2, AlFx; closed and open states.

T2 sequence (P50991 whole entry): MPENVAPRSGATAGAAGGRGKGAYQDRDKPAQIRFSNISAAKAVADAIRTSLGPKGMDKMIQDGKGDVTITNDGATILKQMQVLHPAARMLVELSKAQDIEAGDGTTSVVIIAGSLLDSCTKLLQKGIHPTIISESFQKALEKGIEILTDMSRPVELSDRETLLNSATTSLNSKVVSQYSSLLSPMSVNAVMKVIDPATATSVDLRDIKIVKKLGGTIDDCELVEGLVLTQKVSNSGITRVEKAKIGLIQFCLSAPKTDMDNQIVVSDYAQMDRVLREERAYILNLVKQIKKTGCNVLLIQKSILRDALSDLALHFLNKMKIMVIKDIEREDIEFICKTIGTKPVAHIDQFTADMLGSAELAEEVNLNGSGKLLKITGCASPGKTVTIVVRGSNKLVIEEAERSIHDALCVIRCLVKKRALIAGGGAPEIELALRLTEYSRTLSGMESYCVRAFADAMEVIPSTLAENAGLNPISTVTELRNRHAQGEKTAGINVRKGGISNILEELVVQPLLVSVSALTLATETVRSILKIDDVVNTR

B1: nanobody Nb18 (VHH)
VHH: QVQLVESGGGLVQAGGSLRLSCGASGTFFRINDMGWYRQASGKQRELVASITRGGTTDYADSVKGRFTISRDNAKNTVYLQMNSLKPEDTAVYYCKANRNWGREWDDYWGQGTQVTVSS
notes: Nb18 is modelled in the TRiC–Nb18 structure solved here (PDB 7NVL); llama nanobody raised against CCT5 homo-hexadecamer, in vector pMESy4; Starting model was a homology model on PDB 6QX4 chain C (another nanobody); also called CA14679; source: E. coli, purified (Ni-NTA, SEC)
Turning to B1, the Kd (in general, the concentration at which binding is half-saturated) in experiment [1] worked out at 86 nM. Moreover, in experiment [2], the binding result was “no binding (tested: Nb18 40 μM to 39 nM (methods))”. The stoichiometry N (as a rule, a count of units in the complex or per binding partner) in experiment [3] was 2.
